Test results: patent US20050019833A1, “Proteins capable of binding to environmental hormones and process for producing the same” (priority 2002, published 2005)

B1: anti-alkylphenol monoclonal antibody: monoclonal antibody (IgG2b, kappa) produced by mouse hybridoma AP-14 (FERM BP-6633) (antibody, V domains shown)
VH: QVQLQQSAAELARPGASVKMSCKASGYRFTRYTMHWVKQRPGQGLEWIGNINPSSGDTEYNQKFKDKTTLTADKSSTTAYMQLSSLTSEDSAVYYCATPIFYYGSRYVRYEMDYWGQGTSVTVSS
VL: DIVMTQAAFSNPVTLGTSTSISCRSTKSLLHSNGITYLYWYLQKPGQSPQLLIYQMSNLASGVPDRFSSSGSGTDFTLRISRVEAEDVGVYYCAQNLELPYTFGGGTKLEIKR
modifications: Mouse
B2: anti-alkylphenolethoxylate monoclonal antibody: monoclonal antibody (IgG1, kappa) produced by mouse hybridoma MOF3-139 (FERM BP-6059) (antibody, V domains shown)
VH: QVQLQQSGAELMKPGASVKISCKVTGYTFRSYWIEWVKQRPGHGLEWIGEILVGSGSTKYNEKFKGKATITAQTSSNTVYMQLSSLTSEDSAVYYCARPFFGSRYDYSDFWGQGTTLTVSS
VL: DIVMTQAAFSNPVTLGSSASISCRSSKSLLHRNGITYLYWYLQKPGQSPQVLIYQMSNLASGVPDRFSSSGSGTDFTLRISRVEAEDVGVYYCAQNLELPYTFGGGTKLEIKR
modifications: Mouse

How the values were obtained:
[1] = indirect competitive ELISA, nonylphenoxyacetic acid standard solution; assay type: binding; conditions: FIG. 5; cross-reactivity (%)=[IC50 of NP10EO/IC50 of test compound]x100
Description: (§1) A nonylphenoldecaethoxylate (NPLOEO) standard solution was used in (A), a nonylphenoxyacetic acid (NPLEC) standard solution was used in (B), and a nonylphenol (NP) standard solution was used in (C).
(§2) Moreover, a nonylphenoldecaethoxylate (NPLOEO) standard solution was used in (A) and (B), a nonylphenoxyacetic acid (NPLEC) standard solution was used in (C) and (D) and a nonylphenol (NP) standard solution was used in (E) and (F).
(§3) A conjugate (5 μg/mL) of hapten and bovine serum albumin (BSA) (100 μL/each well) was added to a 96-well microtiter plate and stood at 4° C. overnight. After removing the liquid from the well, 300 μL of Block Ace (purchased from Dainippon Pharmaceutical Co., Ltd.) 4-fold diluted with distillated water was added to each well and stood at 4° C. overnight. After removing the liquid from the well, a standard solution (50 μL) of nonylphenol decaethoxylate stepwise diluted with phosphate buffer (10 mM sodium phosphate (purchased from Nacalai Tesque, Inc.), 150 mM NaCl, pH 7.2) was added to each well. […] The mixture was incubated at 25° C. for 1 hr and each well was washed 4 times with a phosphate buffer. Then, 100 μL of mouse anti-HSV tagged antibody (purchased from Amersham Pharmacia Biotech), diluted with a phosphate buffer to 0.1 μg/mL, was added to each well and the mixture was incubated at 25° C. for 1 hr. […] The absorbance at wavelength of 450 nm was measured.

[2] = indirect competitive ELISA, nonylphenol standard solution; assay type: binding; conditions: FIG. 5; cross-reactivity (%)=[IC50 of NP10EO/IC50 of test compound]x100
Description: as §1, §2, §3

Molecule	cross-reactivity with NP1EC [1]	cross-reactivity with NP [2]
B1	shows cross-reactivity	shows cross-reactivity
B2	hardly shows cross-reactivity	hardly shows cross-reactivity
